Experimental data as given in PMC4520091.

What was measured:
[1] = system: yPrp3CTF; assay: EMSA; conditions: tRNA competitor, EMSA: 20 mM Tris-HCl pH 7.0, 150 mM NaCl, 2 mM DTT, 0.5 ug/ul tRNA, 4 C, titrations: 20 mM HEPES pH 6.8, 150 mM NaCl, 0.33 ug/ul tRNA, human FL/N/C: 10 mM Tris …
[2] = system: yPrp3CTF R304A; assay: ITC; conditions: 20 C, GAGA-fused RNA; EMSA: 20 mM Tris-HCl pH 7.0, 150 mM NaCl, 2 mM DTT, 0.5 ug/ul tRNA, 4 C; titrations: 20 mM HEPES pH 6.8, 150 mM NaCl, 0.33 ug/ul tRNA; human FL/N/C: 10 mM Tris …
[3] = system: yPrp3CTF R322A; assay: ITC; conditions: 20 C, GAGA-fused RNA; EMSA: 20 mM Tris-HCl pH 7.0, 150 mM NaCl, 2 mM DTT, 0.5 ug/ul tRNA, 4 C; titrations: 20 mM HEPES pH 6.8, 150 mM NaCl, 0.33 ug/ul tRNA; human FL/N/C: 10 mM Tris …
[4] = system: yPrp3CTF; assay: ITC; conditions: 20 C, GAGA-fused RNA; EMSA: 20 mM Tris-HCl pH 7.0, 150 mM NaCl, 2 mM DTT, 0.5 ug/ul tRNA, 4 C; titrations: 20 mM HEPES pH 6.8, 150 mM NaCl, 0.33 ug/ul tRNA; human FL/N/C: 10 mM Tris …
[5] = system: yPrp3DUF1115; assay: ITC; conditions: EMSA: 20 mM Tris-HCl pH 7.0, 150 mM NaCl, 2 mM DTT, 0.5 ug/ul tRNA, 4 C; titrations: 20 mM HEPES pH 6.8, 150 mM NaCl, 0.33 ug/ul tRNA; human FL/N/C: 10 mM Tris …
[6] = system: yPrp3CTF R304A; assay: EMSA; conditions: tRNA competitor; apparent Kd; EMSA: 20 mM Tris-HCl pH 7.0, 150 mM NaCl, 2 mM DTT, 0.5 ug/ul tRNA, 4 C; titrations: 20 mM HEPES pH 6.8, 150 mM NaCl, 0.33 ug/ul tRNA; human FL/N/C: 10 mM Tris …
[7] = system: yPrp3CTF R322A; assay: EMSA; conditions: tRNA competitor; apparent Kd; EMSA: 20 mM Tris-HCl pH 7.0, 150 mM NaCl, 2 mM DTT, 0.5 ug/ul tRNA, 4 C; titrations: 20 mM HEPES pH 6.8, 150 mM NaCl, 0.33 ug/ul tRNA; human FL/N/C: 10 mM Tris …
[8] = system: yPrp3DUF1115; assay: EMSA; conditions: tRNA competitor; apparent Kd; EMSA: 20 mM Tris-HCl pH 7.0, 150 mM NaCl, 2 mM DTT, 0.5 ug/ul tRNA, 4 C; titrations: 20 mM HEPES pH 6.8, 150 mM NaCl, 0.33 ug/ul tRNA; human FL/N/C: 10 mM Tris …

Row | Substance | binding signal (fold lower affinity than wt) [1] | Kd [2] [nM] | Kd [3] [nM] | Kd [4] [nM] | Kd [5] [nM] | Kd [6] [nM] | Kd [7] [nM] | Kd ([1]; apparent Kd) [nM] | Kd [8] [nM]
1 | yU4/U6 stem II+13nt U4 C12G | 2 |  |  |  |  |  |  |  | 
2 | yU4/U6 stem II+13nt |  | 260 | 400 | 110 | 380 | 1580 | 2630 | 920 | 1830
3 | yU4/U6 stem II+13nt U6 C69G | 2 |  |  |  |  |  |  |  | 
